Consider nine molecules from patent US20260137822A1 (ABDERA THERAPEUTICS, published 2026).

The target of assay [1] is T1, human DLL3 (recombinant antigen) (human, UniProt Q9NYJ7 27-492, limits assumed).
T1 construct: also called hDLL3
T1 sequence (looked up): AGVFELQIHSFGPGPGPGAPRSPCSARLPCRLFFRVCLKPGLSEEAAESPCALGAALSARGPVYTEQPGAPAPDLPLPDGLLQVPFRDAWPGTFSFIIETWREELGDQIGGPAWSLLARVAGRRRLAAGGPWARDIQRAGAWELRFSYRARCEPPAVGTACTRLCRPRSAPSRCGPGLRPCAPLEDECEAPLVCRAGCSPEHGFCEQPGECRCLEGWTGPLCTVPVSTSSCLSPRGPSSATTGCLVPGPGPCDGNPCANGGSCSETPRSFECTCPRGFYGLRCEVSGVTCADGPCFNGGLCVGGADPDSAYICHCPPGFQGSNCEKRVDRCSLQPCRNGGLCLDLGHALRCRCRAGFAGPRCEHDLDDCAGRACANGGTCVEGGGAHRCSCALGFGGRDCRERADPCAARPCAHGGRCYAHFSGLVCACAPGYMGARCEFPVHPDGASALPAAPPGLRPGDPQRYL
The assay is described as follows: affinity to hDLL3, H435Q-Fc format; method not given.

Assay [2] concerns the target T2, human DLL3 on cells (HEK293T cells expressing human DLL3; SHP-77 cells) (human, UniProt Q9NYJ7 27-618).
T2 sequence (looked up): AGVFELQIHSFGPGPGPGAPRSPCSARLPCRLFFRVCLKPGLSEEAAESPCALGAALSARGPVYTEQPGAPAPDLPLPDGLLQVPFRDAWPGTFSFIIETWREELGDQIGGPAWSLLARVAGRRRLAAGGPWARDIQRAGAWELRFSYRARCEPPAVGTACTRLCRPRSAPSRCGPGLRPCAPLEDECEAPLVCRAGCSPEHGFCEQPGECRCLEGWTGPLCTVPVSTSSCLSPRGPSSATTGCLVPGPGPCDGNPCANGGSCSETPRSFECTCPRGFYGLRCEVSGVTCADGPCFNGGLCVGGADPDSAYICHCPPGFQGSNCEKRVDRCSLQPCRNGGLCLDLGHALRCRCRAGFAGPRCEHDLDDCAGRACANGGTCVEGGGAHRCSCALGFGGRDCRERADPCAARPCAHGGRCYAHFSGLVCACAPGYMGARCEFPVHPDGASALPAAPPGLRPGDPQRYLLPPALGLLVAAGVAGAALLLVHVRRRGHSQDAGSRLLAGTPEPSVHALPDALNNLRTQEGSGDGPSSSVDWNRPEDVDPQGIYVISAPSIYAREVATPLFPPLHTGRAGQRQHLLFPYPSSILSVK
The assay is described as follows: cell-based or functional assay.

Assay [3] has as its target T2, human DLL3 on cells (HEK293T cells …). As to the kind of experiment: flow cytometry on SHP-77 cells (endogenous DLL3), H435Q-Fc format.
Assay [4] concerns the target T3, mouse FOLR1 (recombinant antigen) (mouse, UniProt P35846 25-232, limits assumed).
T3 construct: also called mFOLR1
As to the kind of experiment: BLI (Octet), construct captured on AHC biosensor, mFOLR1 as analyte.

For assay [5], the target named is T4, mouse DLL3 (recombinant antigen) (mouse, UniProt O88516 25-477, limits assumed).
T4 construct: also called mDLL3
T4 sequence (looked up): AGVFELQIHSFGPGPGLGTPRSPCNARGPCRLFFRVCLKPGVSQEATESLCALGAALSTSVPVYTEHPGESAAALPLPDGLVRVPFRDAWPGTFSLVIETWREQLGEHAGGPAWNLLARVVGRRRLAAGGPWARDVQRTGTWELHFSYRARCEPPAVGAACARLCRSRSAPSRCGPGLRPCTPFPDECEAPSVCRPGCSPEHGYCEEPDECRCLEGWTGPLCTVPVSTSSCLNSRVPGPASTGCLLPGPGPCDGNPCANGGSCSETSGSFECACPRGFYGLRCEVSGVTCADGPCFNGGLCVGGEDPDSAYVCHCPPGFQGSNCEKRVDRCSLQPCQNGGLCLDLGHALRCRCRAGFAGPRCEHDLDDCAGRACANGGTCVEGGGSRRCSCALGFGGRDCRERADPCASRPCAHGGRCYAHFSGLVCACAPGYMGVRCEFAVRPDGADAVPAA
The assay is described as follows: BLI (Octet), construct captured on AHC biosensor, mDLL3 as analyte; row label taken as a misprint for the bispecific.

Assay [6] deals with T3, mouse FOLR1 (recombinant antigen). The assay is described as follows: ELISA on mFOLR1.
The target of assay [7] is T1, human DLL3 (recombinant antigen). As to the kind of experiment: BLI (Octet), construct captured on AHC biosensor, hDLL3 as analyte.
The target of the next assay is T5, FOLR1 on OVCAR3 cells (UniProt P15328 25-234).
T5 construct: whole, on cells; OVCAR3 is a human ovarian cancer line; also called FOLR1-positive OVCAR3 cells
As to the kind of experiment: cell binding to FOLR1-positive OVCAR3 cells.

Assay [8] has as its target T6, human FOLR1 (recombinant antigen) (human, UniProt P15328 25-234, limits assumed).
T6 construct: also called hFOLR1
As to the kind of experiment: BLI (Octet), construct captured on AHC biosensor, hFOLR1 as analyte.

The target of assay [9] is T6, human FOLR1 (recombinant antigen). The assay is described as follows: ELISA on hFOLR1.
Assay [10] concerns the target T1, human DLL3 (recombinant antigen). As to the kind of experiment: BLI (Octet), VHH-Fc captured on AHC biosensor, hDLL3 as analyte.
In assay [11] the target is T3, mouse FOLR1 (recombinant antigen). As to the kind of experiment: BLI (Octet), VHH-Fc captured on AHC biosensor, mFOLR1 as analyte.
The target of assay [12] is T4, mouse DLL3 (recombinant antigen). As to the kind of experiment: BLI (Octet), VHH-Fc captured on AHC biosensor, mDLL3 as analyte.
The target of assay [13] is T6, human FOLR1 (recombinant antigen). The assay is described as follows: BLI (Octet), VHH-Fc captured on AHC biosensor, hFOLR1 as analyte.

T3 sequence (P35846 25-232 limits assumed): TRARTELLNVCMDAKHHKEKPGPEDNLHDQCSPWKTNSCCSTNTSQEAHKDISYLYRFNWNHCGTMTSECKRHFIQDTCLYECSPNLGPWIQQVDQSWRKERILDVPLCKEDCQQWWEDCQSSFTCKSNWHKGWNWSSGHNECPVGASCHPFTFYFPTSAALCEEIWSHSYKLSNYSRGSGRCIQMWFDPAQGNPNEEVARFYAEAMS
T6 sequence (P15328 25-234 limits assumed): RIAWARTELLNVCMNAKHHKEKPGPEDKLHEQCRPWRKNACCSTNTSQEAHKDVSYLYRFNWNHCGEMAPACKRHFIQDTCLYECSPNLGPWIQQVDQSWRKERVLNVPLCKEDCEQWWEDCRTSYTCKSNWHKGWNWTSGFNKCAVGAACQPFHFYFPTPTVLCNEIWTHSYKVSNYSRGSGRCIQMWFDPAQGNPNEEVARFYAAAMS
T5 sequence (P15328 25-234): as the sequence (P15328 25-234 limits assumed) above

B1: Clone 24 VHH-Fc, H435Q-Fc format (Fc fusion)
chain: QVQYVESGGGLVQPGGSLRLSCAASGFTFSSYRINWYRQPPGKGRELVGSITDTGSTNYADSVKGRFTISRDNAKNTVYLQMSSLKPEDTAVYYCRAPTIAAYWGQGTQVTVSS
notes: also called 24 (H435Q-Fc); not shown: hinge and human IgG1 Fc with H435Q (EU)
Take B1: in [1], the Kd turned out to be 1.08 nM. Besides, the “H435Q-Fc SHP-77 Internalization FOI” value in assay [2] is 1.19 fold over isotype. This molecule also displayed an EC50 in assay [3] of 1.2 nM.

B2: Clone 100 VHH-Fc, H435Q-Fc format (Fc fusion)
chain: QVQLVESGGGSVQPGGSLRLSCAASGIVFNSDVMGWYRQVPGKPRELVATITGGGSTNYATSVKGRFTISRDNAKNTVYLQMNSLRPEDTAVYYCNGRRGDSMLAFWAQGTQVTVSS
notes: also called 100 (H435Q-Fc); not shown: hinge and human IgG1 Fc with H435Q (EU)
Regarding B2, the Kd in assay [1] amounted to 0.2 nM. Also, in assay [2], the “H435Q-Fc SHP-77 Internalization FOI” value worked out at 1.19 fold over isotype. Also, the EC50 in assay [3] was determined as 1.16 nM.

B3: Anti-FOLR1x2; Anti-DLL3x2; GGSx3 (bispecific tetravalent VHH-VHH-Fc) (bispecific antibody, not shown: a dimerising Fc or GST)
chain: QVQLVESGGGLVQPGGSLRLSCAASGFTVSNSVMAWYRQTPGNEREFVAIINSIGITNYADSVKGRFTISRDNSKNTLYLQMNSLRAEDTAVYVCNRNFDRIYWGQGTLVTVSSGGSGGSGGSEVQLVESGGGEVQPGGSLRLSCAASGSIFSINAMGWYRQAPGKQRELVAGFTGDTNTIYAESVKGRFTISRDNAKNTVYLQMSSLRAEDTAVYYCAADVQLFSRDYEFYWGQGTLVTVKP
notes: homodimer; 104,263 Da; also called (GGS)3
As for B3, the dissociation constant Kd in assay [4] came to 7 nM; in assay [5], 2.92 nM; in assay [7], 1.43 nM; in assay [8], 2.68 nM. Further, the koff in [4] turned out to be 0.00399 s⁻¹; in [5], 0.000659 s⁻¹; in assay [7], 0.000312 s⁻¹; in assay [8] it was 0.00102 s⁻¹. In addition, the kon in assay [4] was 553000 M⁻¹ s⁻¹; in assay [5], 226000 M⁻¹ s⁻¹; in assay [7], 219000 M⁻¹ s⁻¹; in [8] it was 381000 M⁻¹ s⁻¹. For the same molecule, the concentration for a half-maximal effect (EC50) in assay [6] came to 0.09 nM; in the assay with FOLR1 on OVCAR3 cells, 0.58 nM; in [9] it was 0.14 nM.

B4: Anti-FOLR1x2; Anti-DLL3x2; GGGGSx3 (bispecific tetravalent VHH-VHH-Fc) (bispecific antibody, not shown: a dimerising Fc or GST)
chain: QVQLVESGGGLVQPGGSLRLSCAASGFTVSNSVMAWYRQTPGNEREFVAIINSIGITNYADSVKGRFTISRDNSKNTLYLQMNSLRAEDTAVYVCNRNFDRIYWGQGTLVTVSSGGGGSGGGGSGGGGSEVQLVESGGGEVQPGGSLRLSCAASGSIFSINAMGWYRQAPGKQRELVAGFTGDTNTIYAESVKGRFTISRDNAKNTVYLQMSSLRAEDTAVYYCAADVQLFSRDYEFYWGQGTLVTVKP
notes: homodimer; 104,948 Da; also called (GGGGS)3
For the molecule B4, the Kd is 8.32 nM in [4], 3.09 nM in assay [5], 1.53 nM in [7] and 2.75 nM in assay [8]. Further, the koff in assay [4] is 0.00407 s⁻¹; in assay [5] it was 0.000684 s⁻¹; in assay [7], 0.000306 s⁻¹; in assay [8], 0.00111 s⁻¹. For the same molecule, the kon turned out to be 490000 M⁻¹ s⁻¹ in [4], 222000 M⁻¹ s⁻¹ in [5], 200000 M⁻¹ s⁻¹ in assay [7] and 405000 M⁻¹ s⁻¹ in assay [8]. The EC50 in [6] was 0.08 nM; in the assay with FOLR1 on OVCAR3 cells, 0.7 nM; in assay [9], 0.13 nM.

B5: Clone 107 VHH-Fc, H435Q-Fc format (Fc fusion)
chain: QVQLVESGGGLVQAGDSLRLSCVASDRTFSSYAVGWFRQAPGKEREFVAAISWNGGRTLYTDSVTGRFTISRDNAKSTVYLQMNGLKPEDTAVYYCAARPAAPTRRLEYDYWGQGTQVTVSS
notes: not shown: hinge and human IgG1 Fc with H435Q (EU)
For the molecule B5, the Kd in assay [1] is 0.72 nM. The “H435Q-Fc SHP-77 Internalization FOI” value in assay [2] was determined as 1.27 fold over isotype. In [3], this molecule yielded an EC50 of 0.74 nM.

B6: Anti-FOLR1x2; Anti-DLL3x2; GGSx4 (bispecific tetravalent VHH-VHH-Fc) (bispecific antibody, not shown: a dimerising Fc or GST)
chain: QVQLVESGGGLVQPGGSLRLSCAASGFTVSNSVMAWYRQTPGNEREFVAIINSIGITNYADSVKGRFTISRDNSKNTLYLQMNSLRAEDTAVYVCNRNFDRIYWGQGTLVTVSSGGSGGSGGSGGSEVQLVESGGGEVQPGGSLRLSCAASGSIFSINAMGWYRQAPGKQRELVAGFTGDTNTIYAESVKGRFTISRDNAKNTVYLQMSSLRAEDTAVYYCAADVQLFSRDYEFYWGQGTLVTVKP
notes: homodimer; 104,665 Da; also called (GGS)4
Consider B6, for which the Kd in assay [4] was determined as 7.99 nM; in assay [5], 2.88 nM; in assay [7], 1.24 nM; in [8] it was 2.32 nM. For the same molecule, the koff amounted to 0.00386 s⁻¹ in assay [4], 0.000642 s⁻¹ in assay [5], 0.000267 s⁻¹ in assay [7] and 0.000932 s⁻¹ in assay [8]. The kon in assay [4] stood at 483000 M⁻¹ s⁻¹; in assay [5], 223000 M⁻¹ s⁻¹; in [7], 215000 M⁻¹ s⁻¹; in [8] it was 401000 M⁻¹ s⁻¹. Further, the 50% effective concentration (EC50) in [6] turned out to be 0.07 nM; with FOLR1 on OVCAR3 cells, 0.59 nM; in assay [9], 0.11 nM.

B7: Clone 126 VHH-Fc, H435Q-Fc format (Fc fusion)
chain: QVQLVESGGGMVQPGGSLRLSCAASGITFSMYSMSWYRQPPGKQRELVAATTTFGSTNYADSVKGRFTISRDNAKNTVYLQMNSLKPEDTAVYLCNARFTSEEYWGQGTQVTVSS
notes: as for B5
As for B7, the Kd in assay [1] was below 1 nM. The “H435Q-Fc SHP-77 Internalization FOI” value in assay [2] is 1.19 fold over isotype. The 50% effective concentration (EC50) in assay [3] came to 0.44 nM.

B8: FOLR1 VHH (VHH-Fc control) (Fc fusion, not shown: a dimerising Fc or GST)
chain: QVQLVESGGGLVQPGGSLRLSCAASGFTVSNSVMAWYRQTPGNEREFVAIINSIGITNYADSVKGRFTISRDNSKNTLYLQMNSLRAEDTAVYVCNRNFDRIYWGQGTLVTVSS
As for B8, the binding result in assay [10] and in assay [12] was “no binding” throughout. Moreover, the EC50 is 0.08 nM in assay [6] and 0.12 nM in assay [9]. Also, the dissociation constant Kd in [11] came to 4.67 nM; in assay [13], 2.19 nM. For the same molecule, the results for the koff in [11] and in [13] were 0.00312 s⁻¹ and 0.000828 s⁻¹, respectively. The results for the kon in assay [11] and in assay [13] were 668000 M⁻¹ s⁻¹ and 379000 M⁻¹ s⁻¹, respectively.

B9: Clone 186 VHH-Fc, H435Q-Fc format (Fc fusion)
chain: QVQVVESGGGLVQPGGSLTLSCAASGFDFSTYTVNWYRQAPGKEREKVARISSTGTTTNYANSAKGRFTLSRDNAKNRVYLQMNNLKPEDTAVYFCNFERFDSNYWGQGTQVTVSS
notes: also called 186 (H435Q-Fc); not shown: hinge and human IgG1 Fc with H435Q (EU)
Consider B9, for which the Kd in assay [1] stood at 0.55 nM. For the same molecule, the “H435Q-Fc SHP-77 Internalization FOI” value in assay [2] turned out to be 1.18 fold over isotype. This molecule also showed an EC50 in [3] of 0.47 nM.
